From PMC2196875

Biological target: titin fragment Z9-Z10 as used in isothermal titration calorimetry (human)
Assay: ITC

“untagged obscurin fragment Ob48-Ob49 (domain or fragment)” gave a Kd of 100 to 200 nM.
